Results: patent US20140356418A1

Experiments:
[1] = molecular target: Aβ42 fibrils (immobilized Aβ(1-42) fibrils) (UniProt P05067); assay: SPR (Sensi Q), immobilized Aβ(1-42) fibrils, fit of a single curve; inset table row 2 (the row's concentration, 1 or 3 µM, is not given)
[2] = molecular target: Aβ42 fibrils (immobilized Aβ(1-42) fibrils) (UniProt P05067); assay: SPR (Sensi Q), immobilized Aβ(1-42) fibrils, fit of a single curve; (the concentration, 1 or 3 µM, is not given)
[3] = molecular target: Aβ42 fibrils (immobilized Aβ(1-42) fibrils) (UniProt P05067); assay: SPR, Aβ fibrils (summary of the Examples)
[4] = molecular target: Aβ42 fibrils (immobilized Aβ(1-42) fibrils) (UniProt P05067); assay: SPR, Aβ42 fibrils immobilized, Langmuir 1:1 fit
[5] = molecular target: Aβ42 fibrils (immobilized Aβ(1-42) fibrils) (UniProt P05067); assay: SPR, Aβ42 fibrils immobilized, Langmuir 1:1 fit, curves fitted separately; lower end of the range from curves fitted separately (1, 3, 6 µM RI-OR2-TAT)
[6] = molecular target: Aβ42 fibrils (immobilized Aβ(1-42) fibrils) (UniProt P05067); assay: SPR, Aβ42 fibrils immobilized, Langmuir 1:1 fit, curves fitted separately; upper end of the range from curves fitted separately (1, 3, 6 µM RI-OR2-TAT)

Aβ42 fibrils (immobilized Aβ(1-42) fibrils), sequence (P05067 672-713 limits assumed): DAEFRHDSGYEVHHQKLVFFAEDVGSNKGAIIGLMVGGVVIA

Substance | Kd [1] [nM] | koff [1] [s⁻¹] | kon [1] [M⁻¹ s⁻¹] | Kd [2] [nM] | koff [2] [s⁻¹] | kon [2] [M⁻¹ s⁻¹] | Kd [3] [nM] | koff [4] [s⁻¹] | kon [4] [M⁻¹ s⁻¹] | Kd [5] [nM] | Kd [6] [nM]
PINPs (Peptide Inhibitor NanoParticles): RI-OR2-TAT covalently attached to nanoliposomes | 44.7 | 5.31e-05 | 1190 | 14.8 | 6.71e-05 | 4520 | 14 to 44 |  |  |  | 
RI-OR2-TAT (Ac-rGffvlkGrrrrqrrkkrGy-NH2) (peptide) | 41.5 | 0.000994 | 23900 | 75.6 | 0.00096 | 12700 | 41 to 75 | 0.00037 | 3680 | 58 to 125 | 58 to 125
